Data on 94 variants can be found in the supplement of paper PMC10567573.

The labels stand for the following.
B1: IQUB (parent)
chain: KIREKEEWIKLDYHRRHNPKTNED
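Further: lentivirally expressed fusions sorted by FACS into six bins by GFP to DsRed ratio, PSI derived from sequencing read proportions per bin multiplied by bin number.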

The data set covers variants of B1. The data set can be described thus: protein stability index of a GFP-peptide fusion (GPS, HEK-293T) (PSI 1-6); higher = more stable. To be noted: c terminus: a fixed tail appended.
With KIREKEEWIMLDYHRRHNPKTNED [K10M], the protein stability index worked out at 4.67.

For LIREKEEWIKLDYHRRHNPKTNED [K1L], the protein stability index stood at 4.15.

In the case of AIREKEEWIKLDYHRRHNPKTNED [K1A], the protein stability index came out at 4.79. To HIREKEEWIKLDYHRRHNPKTNED [K1H] belongs 4.62; to QIREKEEWIKLDYHRRHNPKTNED [K1Q], 4.96; to IIREKEEWIKLDYHRRHNPKTNED [K1I], 4.02. To PIREKEEWIKLDYHRRHNPKTNED [K1P] belongs 4.99.

Take FIREKEEWIKLDYHRRHNPKTNED [K1F]: the protein stability index came out at 2.67. For the variant DIREKEEWIKLDYHRRHNPKTNED [K1D], the protein stability index was 4.99. With NIREKEEWIKLDYHRRHNPKTNED [K1N], the protein stability index came to 5.44.

With RIREKEEWIKLDYHRRHNPKTNED [K1R], the protein stability index is 4.68.

Consider MIREKEEWIKLDYHRRHNPKTNED [K1M], for which the protein stability index amounted to 4.14. Under SIREKEEWIKLDYHRRHNPKTNED [K1S] stands 4.62; under VIREKEEWIKLDYHRRHNPKTNED [K1V], 4.52.

Regarding GIREKEEWIKLDYHRRHNPKTNED [K1G], the protein stability index was 5.15. Consider CIREKEEWIKLDYHRRHNPKTNED [K1C], for which the protein stability index is 4.07. Take EIREKEEWIKLDYHRRHNPKTNED [K1E]: the protein stability index worked out at 4.62. Consider TIREKEEWIKLDYHRRHNPKTNED [K1T], for which the protein stability index worked out at 4.87. Under YIREKEEWIKLDYHRRHNPKTNED [K1Y] stands 2.98; under WIREKEEWIKLDYHRRHNPKTNED [K1W], 3.75.

For KIREVEEWIKLDYHRRHNPKTNED [K5V], the protein stability index worked out at 3.4. To KIREEEEWIKLDYHRRHNPKTNED [K5E] belongs 4.45; to KIRELEEWIKLDYHRRHNPKTNED [K5L], 3.13; to KIREFEEWIKLDYHRRHNPKTNED [K5F], 3.67. To KIREPEEWIKLDYHRRHNPKTNED [K5P] belongs 4.63; to KIREHEEWIKLDYHRRHNPKTNED [K5H], 4.51; to KIREQEEWIKLDYHRRHNPKTNED [K5Q], 4.93.

Take KIREIEEWIKLDYHRRHNPKTNED [K5I]: the protein stability index amounted to 2.39. Under KIREMEEWIKLDYHRRHNPKTNED [K5M] stands 3.04.

KIRETEEWIKLDYHRRHNPKTNED [K5T]: the protein stability index was found to be 4.21. Under KIRECEEWIKLDYHRRHNPKTNED [K5C] stands 4.09; under KIREREEWIKLDYHRRHNPKTNED [K5R], 4.64.

As to KIREYEEWIKLDYHRRHNPKTNED [K5Y], the protein stability index stood at 3.92.

With KIREWEEWIKLDYHRRHNPKTNED [K5W], the protein stability index stood at 3.74. To KIRESEEWIKLDYHRRHNPKTNED [K5S] belongs 4.14; to KIREDEEWIKLDYHRRHNPKTNED [K5D], 4.51; to KIREAEEWIKLDYHRRHNPKTNED [K5A], 3.99.

For the variant KIRENEEWIKLDYHRRHNPKTNED [K5N], the protein stability index came to 4.7. To KIREGEEWIKLDYHRRHNPKTNED [K5G] belongs 4.6. Regarding KIREKEEWMKLDYHRRHNPKTNED [I9M], the protein stability index amounted to 4.75. On to KIREKEEWEKLDYHRRHNPKTNED [I9E], for which the protein stability index came out at 5.25. Under KIREKEEWKKLDYHRRHNPKTNED [I9K] stands 5.13. Consider KIREKEEWAKLDYHRRHNPKTNED [I9A], for which the protein stability index is 5.24. Under KIREKEEWLKLDYHRRHNPKTNED [I9L] stands 4.66; under KIREKEEWDKLDYHRRHNPKTNED [I9D], 5.22; under KIREKEEWTKLDYHRRHNPKTNED [I9T], 5.1.

In the case of KIREKEEWGKLDYHRRHNPKTNED [I9G], the protein stability index stood at 5.35. Under KIREKEEWFKLDYHRRHNPKTNED [I9F] stands 3.96; under KIREKEEWHKLDYHRRHNPKTNED [I9H], 4.45. Under KIREKEEWQKLDYHRRHNPKTNED [I9Q] stands 5.24; under KIREKEEWYKLDYHRRHNPKTNED [I9Y], 4.73. Under KIREKEEWVKLDYHRRHNPKTNED [I9V] stands 4.86. As to KIREKEEWNKLDYHRRHNPKTNED [I9N], the protein stability index came out at 5.07. To KIREKEEWCKLDYHRRHNPKTNED [I9C] belongs 4.12. To KIREKEEWPKLDYHRRHNPKTNED [I9P] belongs 4.94. As to KIREKEEWSKLDYHRRHNPKTNED [I9S], the protein stability index turned out to be 4.62. For the variant KISEKEEWIKLDYHRRHNPKTNED [R3S], the protein stability index is 4.6. To KIVEKEEWIKLDYHRRHNPKTNED [R3V] belongs 4.52. Regarding KILEKEEWIKLDYHRRHNPKTNED [R3L], the protein stability index was 4.22. To KIYEKEEWIKLDYHRRHNPKTNED [R3Y] belongs 4.29; to KINEKEEWIKLDYHRRHNPKTNED [R3N], 4.72; to KIGEKEEWIKLDYHRRHNPKTNED [R3G], 5.16. Take KICEKEEWIKLDYHRRHNPKTNED [R3C]: the protein stability index is 4.8. For KIFEKEEWIKLDYHRRHNPKTNED [R3F], the protein stability index is 4.3. To KIPEKEEWIKLDYHRRHNPKTNED [R3P] belongs 4.97; to KIMEKEEWIKLDYHRRHNPKTNED [R3M], 4.02. Take KIKEKEEWIKLDYHRRHNPKTNED [R3K]: the protein stability index was determined as 4.67. On to KIWEKEEWIKLDYHRRHNPKTNED [R3W], for which the protein stability index was determined as 4.21.

For the variant KIIEKEEWIKLDYHRRHNPKTNED [R3I], the protein stability index was determined as 4.35. Consider KITEKEEWIKLDYHRRHNPKTNED [R3T], for which the protein stability index turned out to be 4.61. On to KIQEKEEWIKLDYHRRHNPKTNED [R3Q], for which the protein stability index worked out at 4.6. With KIAEKEEWIKLDYHRRHNPKTNED [R3A], the protein stability index was found to be 5.05. To KIEEKEEWIKLDYHRRHNPKTNED [R3E] belongs 5.08; to KIDEKEEWIKLDYHRRHNPKTNED [R3D], 5.34. To KIHEKEEWIKLDYHRRHNPKTNED [R3H] belongs 4.67. Under KIRKKEEWIKLDYHRRHNPKTNED [E4K] stands 3.86; under KIRLKEEWIKLDYHRRHNPKTNED [E4L], 3.81; under KIRPKEEWIKLDYHRRHNPKTNED [E4P], 4.02. Turning to KIRDKEEWIKLDYHRRHNPKTNED [E4D], the protein stability index came to 4.48. Under KIRAKEEWIKLDYHRRHNPKTNED [E4A] stands 4.38. Take KIRMKEEWIKLDYHRRHNPKTNED [E4M]: the protein stability index was 4.06. With KIRSKEEWIKLDYHRRHNPKTNED [E4S], the protein stability index worked out at 3.95. To KIRTKEEWIKLDYHRRHNPKTNED [E4T] belongs 4; to KIRCKEEWIKLDYHRRHNPKTNED [E4C], 3.71; to KIRYKEEWIKLDYHRRHNPKTNED [E4Y], 4.03. Under KIRRKEEWIKLDYHRRHNPKTNED [E4R] stands 3.99; under KIRWKEEWIKLDYHRRHNPKTNED [E4W], 3.75. Take KIRQKEEWIKLDYHRRHNPKTNED [E4Q]: the protein stability index is 3.82. In the case of KIRGKEEWIKLDYHRRHNPKTNED [E4G], the protein stability index was 3.85. With KIRIKEEWIKLDYHRRHNPKTNED [E4I], the protein stability index was 4. As to KIRFKEEWIKLDYHRRHNPKTNED [E4F], the protein stability index amounted to 3.84. With KIRVKEEWIKLDYHRRHNPKTNED [E4V], the protein stability index was determined as 3.32. To KIRNKEEWIKLDYHRRHNPKTNED [E4N] belongs 4.67; to KIRHKEEWIKLDYHRRHNPKTNED [E4H], 4.32.
